Tests used:
HLA-B*27:05 = assay: IEDB peptide-MHC binding, purified MHC/competitive/fluorescence; filed as Kd, often an IC50 or EC50 that approximates it; ≥ and ≤ were set here for values at or beyond the usual limits of such assays
HLA-B*58:01 = assay: as above
HLA-B*39:01 = assay: as above
HLA-A*02:01 = assay: as above
HLA-B*51:01 = assay: as above
HLA-A*29:02 = assay: as above
HLA-B*15:01 = assay: as above
HLA-A*02:16 [1] = assay: as above
HLA-A*02:19 [2] = assay: as above
HLA-A*02:12 [3] = assay: as above
HLA-B*27:03 = assay: as above
HLA-A*26:01 [4] = assay: as above
HLA-A*03:01 [5] = assay: as above
HLA-B*57:01 = assay: as above
HLA-A*02:03 [6] = assay: as above
HLA-B*18:01 = assay: as above
HLA-A*23:01 = assay: as above
HLA-B*46:01 = assay: as above
HLA-A*24:03 [7] = assay: as above
HLA-B*15:17 = assay: as above
HLA-B*35:01 = assay: as above
HLA-A*69:01 = assay: as above
HLA-A*68:02 [8] = assay: IEDB peptide-MHC binding, purified MHC/direct/fluorescence; filed as Kd, often an IC50 or EC50 that approximates it; ≥ and ≤ were set here for values at or beyond the usual limits of such assays
HLA-A*02:19 [9] = assay: as above
HLA-A*03:01 [10] = assay: as above
HLA-B*40:01 = assay: as above; details: source organism: Ebola virus - Gabon (1994-1997)
HLA-A*01:01 = assay: as above
HLA-A*02:16 [11] = assay: as above; details: source organism: Ravn virus - Ravn, Kenya, 1987
HLA-A*02:12 [12] = assay: as above; details: source organism: Ravn virus - Ravn, Kenya, 1987
HLA-A*26:01 [13] = assay: as above
HLA-A*02:03 [14] = assay: as above; details: source organism: Ravn virus - Ravn, Kenya, 1987
HLA-A*24:03 [15] = assay: as above; details: source organism: Ravn virus - Ravn, Kenya, 1987
HLA-A*02:11 [16] = assay: as above; details: source organism: Ravn virus - Ravn, Kenya, 1987
HLA-C*14:02 = assay: as above; details: source organism: Mycobacterium tuberculosis H37Rv
HLA-C*15:02 = assay: as above; details: source organism: Mycobacterium tuberculosis H37Rv
HLA-C*03:03 = assay: as above; details: source organism: Bacillus anthracis str. A0488
HLA-A*68:02 [17] = assay: IEDB peptide-MHC binding, purified MHC/competitive/fluorescence; filed as Kd, often an IC50 or EC50 that approximates it; ≥ and ≤ were set here for values at or beyond the usual limits of such assays
HLA-A*02:11 [18] = assay: as above
[19] = source organism: Vibrio parahaemolyticus AQ3810
[20] = source organism: Bacillus anthracis str. A2012
[21] = source organism: Zaire ebolavirus
[22] = source organism: Escherichia coli 536
[23] = source organism: Ravn virus - Ravn, Kenya, 1987
[24] = source organism: Sudan ebolavirus - Maleo (1979)
[25] = source organism: Mycobacterium tuberculosis H37Rv
[26] = source organism: Giardia lamblia ATCC 50803
[27] = source organism: Mycobacterium tuberculosis variant bovis BCG str. Pasteur 1173P2
[28] = source organism: Vibrio vulnificus CMCP6
[29] = source organism: Salmonella enterica subsp. enterica serovar Typhi str. CT18

Measured: Kd

GRITVSTKR
0.315 µM: HLA-B*27:05; source organism: Influenza A virus (A/CHU/2-524/2005(H3N2))

KTNRTGLLM
0.0913 µM: HLA-B*58:01; source organism: Bacillus cereus G9241

KVGYFQHGA
≥ 20 µM: HLA-B*39:01; [19] | HLA-A*02:01; [19] | HLA-B*51:01; [19] | HLA-A*29:02; [19] | HLA-B*15:01; [19] | HLA-A*02:16 [1]; [19] | HLA-A*02:19 [2]; [19] | HLA-B*27:03; [19] | HLA-A*26:01 [4]; [19] | HLA-A*03:01 [5]; [19] | HLA-B*57:01; [19] | HLA-A*02:03 [6]; [19] | HLA-B*18:01; [19] | HLA-A*23:01; [19] | HLA-B*46:01; [19] | HLA-A*24:03 [7]; [19] | HLA-B*15:17; [19]
0.171 µM: HLA-A*02:12 [3]; [19]

VRFANELSF
0.0996 µM: HLA-B*27:05; source organism: Bacillus cereus H3081.97

FVAAGAFHM
0.0037 µM: HLA-B*35:01; [20]
0.278 µM: HLA-A*26:01 [4]; [20]

KQIPIWLPL
0.0009 µM: HLA-B*40:01
≥ 20 µM: HLA-B*51:01; [21] | HLA-A*69:01; [21] | HLA-A*26:01 [4]; [21] | HLA-B*57:01; [21] | HLA-A*68:02 [8]; [21] | HLA-A*02:19 [9]; [21] | HLA-A*03:01 [10]; [21]
0.316 µM: HLA-B*27:05; [21]

QMLPGYFRF
0.0002 µM: HLA-A*24:03 [7]; [22]
0.046 µM: HLA-B*58:01; [22]
0.223 µM: HLA-B*15:01; [22]

YSGNIVHRY
0.0647 µM: HLA-B*58:01; [21]
0.0896 µM: HLA-A*01:01; [24]
1.55 µM: HLA-A*26:01 [13]; [24]
≥ 20 µM: HLA-B*39:01; [21] | HLA-A*02:01; [21] | HLA-B*51:01; [21] | HLA-A*69:01; [21] | HLA-B*27:03; [21] | HLA-B*46:01; [21] | HLA-A*68:02 [8]; [23] | HLA-A*02:16 [11] | HLA-A*02:19 [9]; [23] | HLA-A*02:12 [12] | HLA-A*03:01 [10]; [23] | HLA-A*02:03 [14] | HLA-A*24:03 [15] | HLA-A*02:11 [16]

YVRTNGASY
≥ 20 µM: HLA-C*15:02
0.026 µM: HLA-A*26:01 [13]; source organism: Mycobacterium tuberculosis
2.22 µM: HLA-B*46:01; [25]
0.0646 µM: HLA-B*35:01; [25]
0.353 µM: HLA-C*14:02

ITLPISASL
0.114 µM: HLA-B*58:01; source organism: Bacillus anthracis str. A0488
≤ 0.001 µM: HLA-C*03:03

DEYGPVFVE
≥ 20 µM: HLA-B*39:01; [26] | HLA-A*02:01; [26] | HLA-B*51:01; [26] | HLA-A*29:02; [26] | HLA-A*68:02 [17]; [26] | HLA-A*69:01; [26] | HLA-B*15:01; [26] | HLA-A*02:16 [1]; [26] | HLA-A*02:19 [2]; [26] | HLA-A*02:12 [3]; [26] | HLA-B*27:03; [26] | HLA-A*26:01 [4]; [26] | HLA-A*03:01 [5]; [26] | HLA-B*57:01; [26] | HLA-A*02:03 [6]; [26] | HLA-A*23:01; [26] | HLA-B*46:01; [26] | HLA-A*24:03 [7]; [26] | HLA-A*02:11 [18]; [26] | HLA-B*15:17; [26]
0.0861 µM: HLA-B*18:01; [26]

FVARIDLGY
0.603 µM: HLA-A*01:01; [27]
0.0142 µM: HLA-B*35:01; source organism: Mycobacterium tuberculosis C
0.0199 µM: HLA-A*26:01 [13]; [27]

WLAGFEPSE
0.453 µM: HLA-A*02:12 [3]; [28]
≥ 20 µM: HLA-B*39:01; [28] | HLA-A*02:01; [28] | HLA-B*51:01; [28] | HLA-A*29:02; [28] | HLA-B*15:01; [28] | HLA-A*02:19 [2]; [28] | HLA-B*27:03; [28] | HLA-A*26:01 [4]; [28] | HLA-A*03:01 [5]; [28] | HLA-B*57:01; [28] | HLA-A*02:03 [6]; [28] | HLA-B*18:01; [28] | HLA-A*23:01; [28] | HLA-B*46:01; [28] | HLA-A*24:03 [7]; [28] | HLA-A*02:11 [18]; [28]

KSKPRIHGY
0.169 µM: HLA-B*57:01; [29]
≥ 20 µM: HLA-B*39:01; [29] | HLA-A*02:01; [29] | HLA-B*51:01; [29] | HLA-A*29:02; [29] | HLA-A*68:02 [17]; [29] | HLA-A*69:01; [29] | HLA-A*02:16 [1]; [29] | HLA-A*02:19 [2]; [29] | HLA-A*02:12 [3]; [29] | HLA-B*27:03; [29] | HLA-A*26:01 [4]; [29] | HLA-A*03:01 [5]; [29] | HLA-A*02:03 [6]; [29] | HLA-B*18:01; [29] | HLA-A*23:01; [29] | HLA-B*46:01; [29] | HLA-A*24:03 [7]; [29] | HLA-A*02:11 [18]; [29]

From the Immune Epitope Database (IEDB)
